Experiment [1] deals with T1, human GDF15 recombinant protein (ACRO, GD5-H5149) (human, UniProt Q99988 197-308).
T1 construct: also called hGDF-15.His; hGDF15; not shown: His tag
T1 sequence (looked up): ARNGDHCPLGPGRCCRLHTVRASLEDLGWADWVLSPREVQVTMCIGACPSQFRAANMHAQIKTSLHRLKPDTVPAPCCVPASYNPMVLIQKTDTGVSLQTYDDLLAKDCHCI
In words: ELISA, coated hGDF-15.His.

Experiment [2] has as its target T2, mouse GDF15 recombinant protein (Kactus, GDF-MM215) (mouse, UniProt Q9Z0J7 189-303, limits assumed).
T2 construct: also called mGDF-15.hFc; murine GDF15; not shown: human Fc (hFc)
T2 sequence (looked up): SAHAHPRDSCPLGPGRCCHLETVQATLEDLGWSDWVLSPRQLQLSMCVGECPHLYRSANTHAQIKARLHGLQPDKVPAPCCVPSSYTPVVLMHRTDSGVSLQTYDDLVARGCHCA
The experiment in a line: ELISA, coated mGDF-15.hFc.

The target of experiment [3] is T1, human GDF15 recombinant protein (ACRO, …). In words: cell-based or functional assay.
The target in experiment [4] is T3, cynomolgus monkey GDF15 recombinant protein (Kactus, GDF-CM215) (cynomolgus monkey, UniProt G7PWZ3 197-308, limits assumed).
T3 construct: also called cynoGDF-15.hFc; cynoGDF15; not shown: human Fc (hFc)
T3 sequence (looked up): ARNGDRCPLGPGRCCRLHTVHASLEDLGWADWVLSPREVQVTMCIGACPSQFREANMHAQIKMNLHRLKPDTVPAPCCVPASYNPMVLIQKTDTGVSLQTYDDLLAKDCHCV
The experiment in a line: ELISA, coated cynoGDF-15.hFc.

In experiment [5] the target is T1, human GDF15 recombinant protein (ACRO, …). The experiment in a line: cell-based or functional assay. The source holds these as a separate data set.

B1: G2-CH6 (antibody, human IgG1, kappa, V domains shown)
VH: EVQLRQSGPELVKPGTSMKISCKASAYSFTDYNMNWVKQSHGKNLEWIGLINPYNGGTRYNQNFKGKATITVDRSSTTAYMELLSLTSEDSAIYYCAREVRLGNALDYWGQGTSVTVSS
VL: DIQMTQSPASLSVSVGETVTITCRPSESIYSNLAWYQQKQGKSPQLLVYAATNLADGVPSRFSGSGSGTQYSLKINSLQSEDFGTYYCQHFWGIPWTFGGGTKLEIKR
notes: chimeric: murine variable regions on human IgG1 constant region mutant (LALAGA, -K)
Turning to B1, the EC50 in experiment [1] came to 0.00434 nM; in experiment [2], 0.11 nM; in experiment [4], 0.0892 nM. Moreover, the “IC50, luciferase reporter gene cell strain (mGFRAL/RET HEK293) with hGDF15” value (shortened to “IC50 … (mGFRAL/RET HEK293) with hGDF15”) in experiment [3] stood at 4.39 nM.

B2: G2-CH9 (antibody, human IgG1, kappa, V domains shown)
VH: EVQLQQSGPELVKPGASMKISCKASGYSFTGYNMNWVKQSQGKNLEWIGLINPYNGGTIYNQKFKGKATLTVDKSSTTAYMELLSLTSEDSAVYYCAREVRLGNAMDYWGQGTSVTVSS
VL: DIQMTQSPASLSVSVGETVTITCRASENIYSNLAWYQQKQGKSPQLLVSAATNLADGVPSRFSGSGSGTQYSLKIISLQSVDFGSYYCQHFWGTPWTFGGGTKLEIKR
notes: as for B1
B2: the EC50 came to 0.00634 nM in experiment [1], 0.11 nM in experiment [2] and 0.097 nM in experiment [4]. In addition, in experiment [3], the “IC50 … (mGFRAL/RET HEK293) with hGDF15” value is 1.42 nM.

B3: G2-CH7 (antibody, human IgG1, kappa, V domains shown)
VH: EVQLQQSGPELVKPGASLKISCKASGYSFTGYNMNWVKQSHGKNLEWIGLINPSNGGSSYSQKFKGKATLTVDKSSSTAYMELLSLTSKDSAVYYCAREVRLGNALDYWGQGTSVTVSS
VL: DIQMTQSPASLSVSVGETVTITCRASENIYSNLAWYQQKQGKSPQLLVYAATNLGDGAPSRFSGSGSGTQYSLKINSLQSEDFGSYYCQHFWGTPWTFGGGTKLEIKR
notes: as for B1
As for B3, the EC50 was found to be 0.00552 nM in experiment [1], 0.12 nM in experiment [2] and 0.104 nM in experiment [4]. Besides, the “IC50 … (mGFRAL/RET HEK293) with hGDF15” value in experiment [3] came out at 3.83 nM.

B4: G2-CH5-HP1-hIgG1 (LALAGA, -K) (antibody, V domains shown)
VH: EVLLQQSGPELVKPGASVKIACKASGYTLTDYNLNWVKQSHGKSLEWIGDLNPYNAGIIYNQKFKGKATLTVDKSSSTAYMELRSLTSEDIAVYYCAREGRGGAWFDSWGQGTLVTVSA
VL: DIQMTQSSSSFSVSLGDRVTITCKASEDIYHRLAWYQQKPGNAPRLLISGATSLETGIPSRFSGSGSGKDYALSITSLQTEDVGTYYCQQYWSPPFTFGSGTKLEIKR
B4: the “IC50, reporter gene cell strain (mGFRAL)” value in experiment [5] was found to be 0.18 µg/mL.

B5: G2-CH5 (antibody, human IgG1, kappa, V domains shown)
VH: EVLLQQSGPELVKPGASVKIACKASGYTLTDYNLNWVKQSHGKSLEWIGDLNPYNGGIIYNQKFKGKATLTVDKSSSTAYMELRSLTSEDIAVYYCAREGRGGAWFDSWGQGTLVTVSA
VL: DIQMTQSSSSFSVSLGDRVTITCKASEDIYHRLAWYQQKPGNAPRLLISGATSLETGIPSRFSGSGSGKDYALSITSLQTEDVGTYYCQQYWSPPFTFGSGTKLEIKR
notes: as for B1
Turning to B5, the EC50 is 0.00394 nM in experiment [1], 0.12 nM in experiment [2] and 0.0929 nM in experiment [4]. Further, the “IC50 … (mGFRAL/RET HEK293) with hGDF15” value in experiment [3] amounted to 3.45 nM.

B6: G2-CH12 (antibody, human IgG1, kappa, V domains shown)
VH: QVQLQQSGAELVKPGASVKLSCKASGYTFTNYDINWVRQRPEQGLEWIGWIFPGDGSTKYNEKFKDKATLTTDTSSSTAYMQLIRLTSEDSAVYFCARILYWGQGTTLTVSS
VL: DNKMTQSPSSMYASLGERVTITCKASQDINSYLSWFQQKPGKSPKTLIYRANKLVDGVPSRFSGSGSGQDYSLTISSLEYEDMGIYHCLQYDEFPYTFGGGTKLEIKR
notes: as for B1
Consider B6, for which the EC50 in experiment [1] stood at 0.0106 nM; in experiment [2], 5.64 nM; in experiment [4] it was 0.211 nM. The “IC50 … (mGFRAL/RET HEK293) with hGDF15” value in experiment [3] was 6.8 nM.

B7: G2-CH8 (antibody, human IgG1, kappa, V domains shown)
VH: QVTLKESGPGILQPSQTLSLTCSFSGFSLSTYGIGVGWIRQPSGKGLEWLAHIWWNDNKYYNTALKSRLTISKDTSNNQVFLKIASVDTADTATYYCARLAYDYVDSWGQGTTLTVSS
VL: DIVMTQAAFSNPVTLGTSASISCRSSKSLLHSNGITYLYWYLQKPGQSPQLLIYQMSNLVSGVPDRFSSSGSGTDFTLRISRVEAEDVGVYYCAQNLELPPTFGAGTKLELKR
notes: as for B1
For B7, the 50% effective concentration (EC50) in experiment [1] came to 0.00122 nM; in experiment [2], 0.37 nM; in experiment [4] it was 0.0934 nM. Besides, the “IC50 … (mGFRAL/RET HEK293) with hGDF15” value in experiment [3] came to 3.05 nM.

B8: G2-CH14 (antibody, human IgG1, kappa, V domains shown)
VH: QVTLKESGPGILQPSQTLSLTCSFSGFSLSTSGMGVSWIRQPSGKGLEWLALIYWDDDKRYNPSLKSRLTISKDASSNQVFLKITSVDTADTATYYCIQSPWDWFAYWGQGTLVTVSA
VL: EIVLTQSPALMAASPGEKVTITCSVSSSISSSNLHWYQQKSETSPKPWIYGTSNLASGVPVRFSGSGSGTSYSLTISSMEAEDAATYYCQQWSSYPLTFGAGTKLELKR
notes: as for B1
With B8, the EC50 in experiment [1] is 0.00663 nM; in experiment [2], 0.76 nM; in experiment [4], 0.0721 nM. For the same molecule, the “IC50 … (mGFRAL/RET HEK293) with hGDF15” value in experiment [3] came out at 0.2 nM.

B9: G2-CH16 (antibody, human IgG1, kappa, V domains shown)
VH: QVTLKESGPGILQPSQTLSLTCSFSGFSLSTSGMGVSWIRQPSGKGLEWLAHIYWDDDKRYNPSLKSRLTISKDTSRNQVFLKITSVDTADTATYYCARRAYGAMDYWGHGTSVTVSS
VL: DIVMTQSQKFMSTSVGDRVSVTCKASQNVGTNIAWFQQKPGQSPEALIYSASYRYSGVPDRFTGSGSGTDFTLTISNVQSEDLAEYFCQQYNTYPHTFGGGTKLEIRR
notes: as for B1
As to B9, the EC50 in experiment [1] was 0.00476 nM; in experiment [2], 0.32 nM; in experiment [4] it was 0.0909 nM. The “IC50 … (mGFRAL/RET HEK293) with hGDF15” value in experiment [3] came out at 0.45 nM.

B10: G2-CH2-LP1-hIgG1 (LALAGA, -K) (antibody, V domains shown)
VH: QVTLKESGPGILQPSQTLSLTCSFSGFSLTISGMGVSWIRQPSGKGLEWLAHIYWDDDKRYNPSLKSRLTISKDTSSNQVFLEITSVDTADTATYYCVRAGWDFFDYWGQGTTLTVSS
VL: DIVMTQSQKFMSTSVGDRVSVTCKASQNVGTNVAWYQQKPGQSPKGLIYSASYRYSGVPDRFTGSGSGTDFTLTISNVQSEDLAEYFCQQYNAYPWTFGGGTKLEIKR
As to B10, in experiment [5], the “IC50, reporter gene cell strain (mGFRAL)” value amounted to 0.088 µg/mL.

B11: G2-CH2 (antibody, human IgG1, kappa, V domains shown)
VH: QVTLKESGPGILQPSQTLSLTCSFSGFSLTISGMGVSWIRQPSGKGLEWLAHIYWDDDKRYNPSLKSRLTISKDTSSNQVFLEITSVDTADTATYYCVRAGWDFFDYWGQGTTLTVSS
VL: DIVMTQSQKFMSTSVGDRVSVTCKASQNVGTNVAWYQQKPGQSPKGLIYSASYRYSGVPDRFTGSGSGTDFTLTISNVQSEDLAEYFCQQYNSYPWTFGGGTKLEIKR
notes: as for B1
As for B11, the EC50 was found to be 0.00627 nM in experiment [1], 0.26 nM in experiment [2] and 0.098 nM in experiment [4]. Moreover, the “IC50 … (mGFRAL/RET HEK293) with hGDF15” value in experiment [3] was found to be 3.24 nM.

B12: G2-CH2-LP2-hIgG1 (LALAGA, -K) (antibody, V domains shown)
VH: QVTLKESGPGILQPSQTLSLTCSFSGFSLTISGMGVSWIRQPSGKGLEWLAHIYWDDDKRYNPSLKSRLTISKDTSSNQVFLEITSVDTADTATYYCVRAGWDFFDYWGQGTTLTVSS
VL: DIVMTQSQKFMSTSVGDRVSVTCKASQNVGTNVAWYQQKPGQSPKGLIYSASYRYSGVPDRFTGSGSGTDFTLTISNVQSEDLAEYFCQQYESYPWTFGGGTKLEIKR
On to B12, for which the “IC50, reporter gene cell strain (mGFRAL)” value in experiment [5] stood at 0.091 µg/mL.

B13: G2-CH2-LP3-hIgG1 (LALAGA, -K) (antibody, V domains shown)
VH: QVTLKESGPGILQPSQTLSLTCSFSGFSLTISGMGVSWIRQPSGKGLEWLAHIYWDDDKRYNPSLKSRLTISKDTSSNQVFLEITSVDTADTATYYCVRAGWDFFDYWGQGTTLTVSS
VL: DIVMTQSQKFMSTSVGDRVSVTCKASQNVGTNVAWYQQKPGQSPKGLIYSASYRYSGVPDRFTGSGSGTDFTLTISNVQSEDLAEYFCQQYNQYPWTFGGGTKLEIKR
Consider B13, for which the “IC50, reporter gene cell strain (mGFRAL)” value in experiment [5] is 0.093 µg/mL.

B14: G2-CH3 (antibody, human IgG1, kappa, V domains shown)
VH: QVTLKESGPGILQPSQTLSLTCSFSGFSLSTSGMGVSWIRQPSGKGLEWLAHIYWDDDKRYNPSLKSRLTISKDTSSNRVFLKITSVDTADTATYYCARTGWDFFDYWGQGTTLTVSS
VL: DIVMTQSQKFMSTSVGDRVSVTCKASQNVGTNVAWYQQKPGQSPKGLIYSASYRYSGVPDRFTGSGSGTDFTLTINNVQSEDLAEYFCQQYNSYPYTFGGGTKLEIKR
notes: as for B1
Take B14: the EC50 in experiment [1] worked out at 0.00453 nM; in experiment [2], 56.5 nM; in experiment [4], 0.102 nM. Also, the “IC50 … (mGFRAL/RET HEK293) with hGDF15” value in experiment [3] was 3.55 nM.

B15: G2-CH10 (antibody, human IgG1, kappa, V domains shown)
VH: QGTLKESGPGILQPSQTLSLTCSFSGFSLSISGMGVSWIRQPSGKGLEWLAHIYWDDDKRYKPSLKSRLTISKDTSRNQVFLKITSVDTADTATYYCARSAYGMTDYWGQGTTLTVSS
VL: DIQMTQTTSSLSASLGDRVTISCRASQDISNYLNWYQQKPDGTVKLLIHSASNLHSGVPSRFSGSGSGTDYSLTISNLEQEDIATYFCQQYNMFPWTFGGGTKLEIKR
notes: as for B1
For B15, the EC50 in experiment [1] was determined as 0.00592 nM; in experiment [2] it was 0.25 nM; in experiment [4], 0.0841 nM. Moreover, the “IC50 … (mGFRAL/RET HEK293) with hGDF15” value in experiment [3] was found to be 3.4 nM.

B16: G2-CH13 (antibody, human IgG1, kappa, V domains shown)
VH: EVLLQQSGPELVKPGASVKITCKASGYTFTDYNMNWVKQSHGKSLEWIGDINPYNGGIIYNQKFRGKATLTIDKSSSTAYMELRSLTSEDTAVYYCAREVRRGSFFDYWGQGTTLTVSS
VL: DIQMTQSPASLSVSVGETVTITCRASENIYSNLAWYQQKQGKSPQLLVYAATDLADGVPSRFSGSGSGTQYSLKINSLQSEDFGNYHCQLFWGTPTFGGGTKLEIKR
notes: as for B1
For B16, the EC50 in experiment [1] worked out at 0.00382 nM; in experiment [2], 0.22 nM; in experiment [4] it was 0.0654 nM. The “IC50 … (mGFRAL/RET HEK293) with hGDF15” value in experiment [3] amounted to 11.7 nM.

These data come from patent EP4810515A1 (Shanghai Haiju Biological Technology Co., Ltd., dated 2026).
